We go through six molecules from patent publication US20210284725A1 (Genentech, published 2021).

Substitutions are numbered along the chain they refer to.

The term Kd denotes the constant that tells how readily two partners part at equilibrium.

To fix the notation:
T1: human IL-33 (human, UniProt O95760 112-270, limits assumed)
T1 sequence (looked up): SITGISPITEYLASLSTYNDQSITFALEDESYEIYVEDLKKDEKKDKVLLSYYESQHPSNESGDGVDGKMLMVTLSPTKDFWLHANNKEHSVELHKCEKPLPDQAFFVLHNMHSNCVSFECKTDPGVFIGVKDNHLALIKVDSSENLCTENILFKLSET

T2: human IL-33 (His-tagged) (human, UniProt O95760 112-270, limits assumed)
T2 construct: not shown: His tag
T2 sequence (looked up): T1 sequence (looked up)

B1: 1E1v12 (antibody, human IgG1, V domains shown)
VH: EVQLVESGGGLVQPGGSLRLSCAASGFTFNNYWMTWVRQAPGKGLEWVASITYTGGGTYYPDSVKGRFTISRDNAKSSLYLQMNSLRAEDTAVYYCTRANYYYNTYGGFPYWGQGTLVTVSS
VL: DIQMTQSPSSLSASVGDRVTITCLASEGFSNDLAWYQQKPGKAPKSLIYAASRLQDGVPSRFSGSGSGTDFTLTISSLQPEDFATYFCQQGSKYPLTFGGGTKVEIK
notes: Humanized 1E1 variant, human IgG1 backbone, expressed in Expi293F
B2: ch1E1 (antibody, V domains shown)
VH: B1 VH with G16T, R19K, A23L, V37I, V48I, N74D, S78T, A88S, V93T
VL: DIQMTQSPASLSASLGETVSIECLASEGFSNDLAWYQQKSGKSPQLLIYAASRLQDGVPSRFSGSGSGTRFSLKISGMQPEDEADYFCQQGSKYPLTFGSGTKLEIKR
B3: 1E1v19 (antibody, human IgG1, V domains shown)
VH: B1 VH with V37I, V48I, N74D
VL: B1 VL with F87Y
notes: as for B1
B4: 1E1v20 (antibody, human IgG1, V domains shown)
VH: B1 VH with N74D
VL: B1 VL with F87Y
notes: as for B1
B5: 1E1v13 (antibody, human IgG1, V domains shown)
VH: B1 VH with V48I, N74D
VL: B1 VL
notes: as for B1
B6: 1E1v21 (antibody, human IgG1, V domains shown)
VH: B1 VH with N74D, S77N
VL: B1 VL with F87Y
notes: as for B1

One assay deals with T1, human IL-33. Nature of the assay: cell-based or functional assay.
Turning to B1, the “IC50 (M), IL-33 neutralization activity, HEK-BLUE IL-33 cells, human IL-33 at 160 pM” value (shortened to “IC50 (M), IL-33 neutralization activity”) stood at 2.44e-11 M.

For B2, the “IC50 (M), IL-33 neutralization activity” value came to 2.9e-11 M.

Regarding B3, the “IC50 (M), IL-33 neutralization activity” value was 3.19e-11 M.

As for B4, the “IC50 (M), IL-33 neutralization activity” value is 3.44e-11 M.

In the case of B5, the “IC50 (M), IL-33 neutralization activity” value turned out to be 2.98e-11 M.

Take B6: the “IC50 (M), IL-33 neutralization activity” value turned out to be 3.1e-11 M.

A further assay concerns the target T2, human IL-33 (His-tagged). Nature of the assay: SPR Biacore T200, IgG captured on protein A chip, His-tagged human IL-33 analyte, 25 C, n=2; column head prints 'KD (nM)' but the E-notation cells are in M, unit corrected to M. The method, then: A protein A sensorchip (GE Healthcare) was used following manufacturer provided protocols to capture humanized anti-IL-33 antibodies using a BIACORE® T200 instrument (GE). Antibody binding was measured to human IL-33 (His-tagged) using multi-cycle kinetics. Sensorgrams for binding of IL-33 were recorded using an injection time of 2 min with a flow rate of 30 μl/min, at a temperature of 25° C., and with a running buffer of 10 mM HEPES, pH 7.4, 150 mM NaCl, 3 mM EDTA, and 0.005% TWEEN620. After injection, disassociation of IL-33 from the antibody was monitored for 10 min in running buffer. The surface was regenerated between binding cycles with a 30 μl injection of 10 mM Glycine HCl pH 1.5. After subtraction of a blank which contained running buffer only, sensorgrams observed for cytokine binding to anti-IL-33 antibody were analyzed using a 1:1 Langmuir binding model with software supplied by the manufacturer to calculate the kinetics and binding constants.
A general note: Surface plasmon resonance follows binding to a sensor surface in real time, without labels.
B1 registered a Kd of 162 pM. In other words, the sub-nanomolar range.

Consider B2, for which binding was put at a Kd of 148 pM. The Kd values of the last two molecules are within 1.5-fold of each other.

Turning to B3, the Kd worked out at 132 pM.

Molecule B4 registered a Kd of 128 pM.

B5 showed a Kd of 140 pM.

B6 came in with a Kd of 156 pM.
